Laboratory results: patent publication US20240270846A1 (published 2024)
Substitutions are numbered along the chain they refer to. Names and notes keep the numbering of the source.

B1: GLS3000 V51D one-arm antibody (H chain CE115HA000) (antibody, human IgG1, kappa, L234A L235A, N297A, name in Kabat numbering)
heavy: QVQLVESGGGVVQPGRSLRLSCAASGFTFSNAWMHWVRQAPGKGLEWVAQIKAKSNNYATYYAESVKGRFTISRDDSKNSLYLQMNSLKTEDTAVYYCRYVHYGAYYGVDAWGQGTTVTVSSASTKGPSVFPLAPSSKSTSGGTAALGCLVKDYFPEPVTVSWNSGALTSGVHTFPAVLQSSGLYSLSSVVTVPSSSLGTQTYICNVNHKPSNTKVDKKVEPKSCDKTHTCPPCPAPEAAGGPSVFLFPPKPKDTLMISRTPEVTCVVVDVSHEDPEVKFNWYVDGVEVHNAKTKPREEQYASTYRVVSVLTVLHQDWLNGKEYKCKVSNKALPAPIEKTISKAKGQPREPQVYTLPPSRCELTKNQVSLSCAVKGFYPSDIAVEWESNGQPENNYKTTPPVLDSDGSFFLVSKLTVDKSRWQQGNVFSCSVMHEALHNHYTQKSLSLSPDYKDDDDK
chain: EPKSSDKTHTCPPCPAPELLGGPSVFLFPPKPKDTLMISRTPEVTCVVVDVSHEDPEVKFNWYVDGVEVHNAKTKPREEQYNSTYRVVSVLTVLHQDWLNGKEYKCKVSNKALPAPIEKTISKAKGQPREPQVCTLPPSRDELTKNQVSLWCLVKGFYPSDIAVEWESNGQPENNYKTTPPVLDSDGSFFLYSKLTVDKSRWQQGNVFSCSVMHEALHNRYTQKSLSLSP
light: DIVMTQSPLSLPVTPGEPASISCRSSQSLVHSNRNTYLHWYQQKPGQAPRLLIYKDSNRFSGVPDRFSGSGSGTDFTLKISRVEAEDVGVYYCGQGTQVPYTFGQGTKLEIKRTVAAPSVFIFPPSDEQLKSGTASVVCLLNNFYPREAKVQWKVDNALQSGNSQESVTEQDSKDSTYSLSSTLTLSKADYEKHKVYACEVTHQGLSSPVTKSFNRGEC
notes: one-arm antibody
B2: GLS3000 V27cY one-arm antibody (H chain CE115HA000) (antibody, human IgG1, kappa, L234A L235A, N297A, name in Kabat numbering)
heavy: B1 heavy
chain: B1 chain
light: B1 light with V30Y, D56V
notes: one-arm antibody
B3: GLS3000 Y32D one-arm antibody (H chain CE115HA000) (antibody, human IgG1, kappa, L234A L235A, N297A, name in Kabat numbering)
heavy: B1 heavy
chain: B1 chain
light: B1 light with Y37D, D56V
notes: one-arm antibody
B4: GLS3000 Y32A one-arm antibody (H chain CE115HA000) (antibody, human IgG1, kappa, L234A L235A, N297A, name in Kabat numbering)
heavy: B1 heavy
chain: B1 chain
light: B1 light with Y37A, D56V
notes: one-arm antibody
B5: CE115HA000 H chain altered form H35A (antibody, human IgG1, kappa, L234A L235A, N297A, name in Kabat numbering)
heavy: B1 heavy with H35A
chain: B1 chain
light: B1 light with D56V
notes: one-arm antibody
B6: CE115HA000 H chain altered form A52aG (antibody, human IgG1, kappa, L234A L235A, N297A, name in Kabat numbering)
heavy: B1 heavy with A53G
chain: B1 chain
light: B1 light with D56V
notes: one-arm antibody
B7: CE115HA000 H chain altered form A60D (antibody, human IgG1, kappa, L234A L235A, N297A, name in Kabat numbering)
heavy: B1 heavy with A63D
chain: B1 chain
light: B1 light with D56V
notes: one-arm antibody
B8: CE115HA000 H chain altered form H35K (antibody, human IgG1, kappa, L234A L235A, N297A, name in Kabat numbering)
heavy: B1 heavy with H35K
chain: B1 chain
light: B1 light with D56V
notes: one-arm antibody
B9: CE115HA000 H chain altered form H35G (antibody, human IgG1, kappa, L234A L235A, N297A, name in Kabat numbering)
heavy: B1 heavy with H35G
chain: B1 chain
light: B1 light with D56V
notes: one-arm antibody
B10: CE115HA000 H chain altered form F29V (antibody, human IgG1, kappa, L234A L235A, N297A, name in Kabat numbering)
heavy: B1 heavy with F29V
chain: B1 chain
light: B1 light with D56V
notes: one-arm antibody
B11: CE115HA000 H chain altered form H35I (antibody, human IgG1, kappa, L234A L235A, N297A, name in Kabat numbering)
heavy: B1 heavy with H35I
chain: B1 chain
light: B1 light with D56V
notes: one-arm antibody
B12: CE115HA000 H chain altered form A52aE (antibody, human IgG1, kappa, L234A L235A, N297A, name in Kabat numbering)
heavy: B1 heavy with A53E
chain: B1 chain
light: B1 light with D56V
notes: one-arm antibody
B13: CE115HA000 H chain altered form E61Q (antibody, human IgG1, kappa, L234A L235A, N297A, name in Kabat numbering)
heavy: B1 heavy with E64Q
chain: B1 chain
light: B1 light with D56V
notes: one-arm antibody
B14: CE115HA000 H chain altered form A56D (antibody, human IgG1, kappa, L234A L235A, N297A, name in Kabat numbering)
heavy: B1 heavy with A59D
chain: B1 chain
light: B1 light with D56V
notes: one-arm antibody
B15: CE115HA000 H chain altered form A32Y (antibody, human IgG1, kappa, L234A L235A, N297A, name in Kabat numbering)
heavy: B1 heavy with A32Y
chain: B1 chain
light: B1 light with D56V
notes: one-arm antibody
B16: CE115HA000 H chain altered form H35D (antibody, human IgG1, kappa, L234A L235A, N297A, name in Kabat numbering)
heavy: B1 heavy with H35D
chain: B1 chain
light: B1 light with D56V
notes: one-arm antibody
B17: CE115HA000 H chain altered form H35F (antibody, human IgG1, kappa, L234A L235A, N297A, name in Kabat numbering)
heavy: B1 heavy with H35F
chain: B1 chain
light: B1 light with D56V
notes: one-arm antibody
B18: CE115HA000 H chain altered form E61A (antibody, human IgG1, kappa, L234A L235A, N297A, name in Kabat numbering)
heavy: B1 heavy with E64A
chain: B1 chain
light: B1 light with D56V
notes: one-arm antibody
B19: CE115HA000 H chain altered form A60E (antibody, human IgG1, kappa, L234A L235A, N297A, name in Kabat numbering)
heavy: B1 heavy with A63E
chain: B1 chain
light: B1 light with D56V
notes: one-arm antibody
B20: CE115HA000 H chain altered form A52aS (antibody, human IgG1, kappa, L234A L235A, N297A, name in Kabat numbering)
heavy: B1 heavy with A53S
chain: B1 chain
light: B1 light with D56V
notes: one-arm antibody
B21: CE115HA000 H chain altered form A56G (antibody, human IgG1, kappa, L234A L235A, N297A, name in Kabat numbering)
heavy: B1 heavy with A59G
chain: B1 chain
light: B1 light with D56V
notes: one-arm antibody
B22: CE115HA000 H chain altered form A56N (antibody, human IgG1, kappa, L234A L235A, N297A, name in Kabat numbering)
heavy: B1 heavy with A59N
chain: B1 chain
light: B1 light with D56V
notes: one-arm antibody
B23: CE115HA000 H chain altered form A52aY (antibody, human IgG1, kappa, L234A L235A, N297A, name in Kabat numbering)
heavy: B1 heavy with A53Y
chain: B1 chain
light: B1 light with D56V
notes: one-arm antibody
B24: CE115HA000 H chain altered form A56L (antibody, human IgG1, kappa, L234A L235A, N297A, name in Kabat numbering)
heavy: B1 heavy with A59L
chain: B1 chain
light: B1 light with D56V
notes: one-arm antibody
B25: CE115HA000 H chain altered form A52aV (antibody, human IgG1, kappa, L234A L235A, N297A, name in Kabat numbering)
heavy: B1 heavy with A53V
chain: B1 chain
light: B1 light with D56V
notes: one-arm antibody
B26: CE115HA000 H chain altered form A52aP (antibody, human IgG1, kappa, L234A L235A, N297A, name in Kabat numbering)
heavy: B1 heavy with A53P
chain: B1 chain
light: B1 light with D56V
notes: one-arm antibody
B27: CE115HA000 H chain altered form A56K (antibody, human IgG1, kappa, L234A L235A, N297A, name in Kabat numbering)
heavy: B1 heavy with A59K
chain: B1 chain
light: B1 light with D56V
notes: one-arm antibody
B28: CE115HA000 H chain altered form E61P (antibody, human IgG1, kappa, L234A L235A, N297A, name in Kabat numbering)
heavy: B1 heavy with E64P
chain: B1 chain
light: B1 light with D56V
notes: one-arm antibody
B29: CE115HA000 H chain altered form H35E (antibody, human IgG1, kappa, L234A L235A, N297A, name in Kabat numbering)
heavy: B1 heavy with H35E
chain: B1 chain
light: B1 light with D56V
notes: one-arm antibody
B30: CE115HA000 H chain altered form A56Q (antibody, human IgG1, kappa, L234A L235A, N297A, name in Kabat numbering)
heavy: B1 heavy with A59Q
chain: B1 chain
light: B1 light with D56V
notes: one-arm antibody
B31: CE115HA000 H chain altered form A52aD (antibody, human IgG1, kappa, L234A L235A, N297A, name in Kabat numbering)
heavy: B1 heavy with A53D
chain: B1 chain
light: B1 light with D56V
notes: one-arm antibody
B32: CE115HA000 H chain altered form A56Y (antibody, human IgG1, kappa, L234A L235A, N297A, name in Kabat numbering)
heavy: B1 heavy with A59Y
chain: B1 chain
light: B1 light with D56V
notes: one-arm antibody
B33: CE115HA000 H chain altered form E61D (antibody, human IgG1, kappa, L234A L235A, N297A, name in Kabat numbering)
heavy: B1 heavy with E64D
chain: B1 chain
light: B1 light with D56V
notes: one-arm antibody

These binders were tested against T1, CD3 epsilon homodimer protein (UniProt P07766 23-126) (assay: SPR, CD3e homodimer on chip;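 also: surface plasmon resonance at 25 degrees C, antibodies flowed as analyte over CD3 epsilon homodimer amine-coupled to a CM4 chip, running buffer HBS-EP+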).
T1 construct: also called CD3 (CD3 epsilon)
T1 sequence (P07766 23-126): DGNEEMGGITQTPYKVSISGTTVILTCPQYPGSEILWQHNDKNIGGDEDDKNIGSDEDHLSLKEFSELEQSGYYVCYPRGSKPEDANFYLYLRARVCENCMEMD
Method: An appropriate amount of CD3 epsilon homodimer protein was immobilized onto Sensor chip CM4 (GE Healthcare Japan Corp.) by the amine coupling method. Then, the antibody having an appropriate concentration was injected thereto as an analyte and allowed to interact with the CD3 epsilon homodimer protein on the sensor chip. Then, the sensor chip was regenerated by the injection of 10 mmol/L glycine-HCl (pH 1.5). The assay was conducted at 25 degrees C., and HBS-EP+(GE Healthcare Japan Corp.) was used as a running buffer. […] Each parameter was calculated using Biacore T200 Evaluation Software (GE Healthcare Japan Corp.).
Specifically, when the amount of the GLS3000-containing antibody bound was defined as X and the amount of the L chain one-amino acid altered form bound was defined as Y, a value of Z (ratio of amounts bound)=Y/X was used.

Row | Binder | ratio of amounts bound (altered form / unaltered GLS3000 antibody)
1 | B1 | 0.33
2 | B2 | 0.77
3 | B3 | 0.23
4 | B4 | 0.24

The binders below were run against T2, CD3 epsilon homodimer protein (UniProt P07766 23-126) (assay: SPR Biacore T200, CD3 epsilon homodimer on chip, antibody as analyte;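 also: homodimer amine-coupled to a CM4 sensor chip, run at 25 °C in HBS-EP+ buffer, with kinetic parameters derived in Biacore T200 Evaluation Software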).
T2 construct: also called CD3 (CD3 epsilon)
T2 sequence (P07766 23-126): as above

Row | Binder | KD ratio (KD of CE115HA000 / KD of altered form)
5 | B5 | 25
6 | B6 | 0.61
7 | B7 | 0.94
8 | B8 | 14.4
9 | B9 | 45.8
10 | B10 | 2.94
11 | B11 | 7.23
12 | B12 | 0.89
13 | B13 | 0.85
14 | B14 | 0.71
15 | B15 | 2.11
16 | B16 | 69
17 | B17 | 53.6
18 | B18 | 0.94
19 | B19 | 0.88
20 | B20 | 0.82
21 | B21 | 0.59
22 | B22 | 0.84
23 | B23 | 7.71
24 | B24 | 0.77
25 | B25 | 0.95
26 | B26 | 5
27 | B27 | 1.32
28 | B28 | 0.82
29 | B29 | 70.3
30 | B30 | 0.74
31 | B31 | 1.35
32 | B32 | 0.63
33 | B33 | 0.9
